In this experiment the test system is Streptococcus mutans. As to the kind of experiment: activity of full length lactoferrin variants expressed in insect cells against S. mutans. As to conditions: Lf variant expressed in an insect vector. In kind it is cell-based. The text has this:
Caries is the single most common chronic childhood disease, five times more common than asthma. Over 70% of children […] have cavities. Over 108 million Americans lack dental health insurance so that treatment of this infection is lacking. S. mutans is considered one of the microbes most associated with dental decay.
Lactoferrin (Lf) is a multifunctional protein that is found in mammary secretion, tears and saliva and in the gastrointestinal tract. Its main function is to sequester iron from its surroundings to prevent oral microbes from attaining iron, a mineral necessary for survival. In addition, in its N-terminus, Lf has a region that has antimicrobial properties. This region is called the defensin region and it has been shown since 1980's that Lf can kill many types of bacteria including oral bacteria. It was also shown that within that N-terminus region, from amino acid position 11 to 31, at least two polymorphic forms exist. For the most part variation in this defensin region at amino acid position 29 can either contain arginine or lysine. […] Further we then determined that pure lactoferrin would have limited usefulness in the oral cavity unless it was linked to something that would allow it to bind to the tooth surface. […]

B1: arginine variant: more common Lf variant with arginine at position 29, expressed in an insect vector (protein, UniProt P02788 20-710, looked up)
Lactotransferrin: GRRRSVQWCAVSQPEATKCFQWQRNMRKVRGPPVSCIKRDSPIQCIQAIAENRADAVTLDGGFIYEAGLAPYKLRPVAAEVYGTERQPRTHYYAVAVVKKGGSFQLNELQGLKSCHTGLRRTAGWNVPIGTLRPFLNWTGPPEPIEAAVARFFSASCVPGADKGQFPNLCRLCAGTGENKCAFSSQEPYFSYSGAFKCLRDGAGDVAFIRESTVFEDLSDEAERDEYELLCPDNTRKPVDKFKDCHLARVPSHAVVARSVNGKEDAIWNLLRQAQEKFGKDKSPKFQLFGSPSGQKDLLFKDSAIGFSRVPPRIDSGLYLGSGYFTAIQNLRKSEEEVAARRARVVWCAVGEQELRKCNQWSGLSEGSVTCSSASTTEDCIALVLKGEADAMSLDGGYVYTAGKCGLVPVLAENYKSQQSSDPDPNCVDRPVEGYLAVAVVRRSDTSLTWNSVKGKKSCHTAVDRTAGWNIPMGLLFNQTGSCKFDEYFSQSCAPGSDPRSNLCALCIGDEQGENKCVPNSNERYYGYTGAFRCLAENAGDVAFVKDVTVLQNTDGNNNEAWAKDLKLADFALLCLDGKRKPVTEARSCHLAMAPNHAVVSRMDKVERLKQVLLHQQAKFGRNGSDCPDKFCLFQSETKNLLFNDNTECLARLHGKTTYEKYLGPQYVAGITNLKKCSTSPLLEACEFLRK
As to B1, the “killing / survival of S. mutans” value is “little to no effect”.

(Values after US8513182B2, “Natural polypeptides for oral health care” (priority 2007, dated 2013).)
